The values that follow come from patent US20240342215A1 (Regeneron, published 2024).

Test [1] concerns the target human CD33 on tumor cells (A549.CD33; A549 electroporated with CD33 mRNA; HL-60, Kasumi1, OCI-AML3) (human, UniProt P20138 18-364). As to the kind of experiment: cell-based or functional assay.
The target in test [2] is MAGEA4 peptide presented by HLA-A2 on tumor cells (A549 transduced with MAGEA4 and HLA-A2; A549 pulsed with …). As to the kind of experiment: cell-based or functional assay.
For test [3], the target named is T1, His labeled CD33-Fc reagent (Acros) (UniProt P20138 18-259).
T1 construct: Secondary staining was with APC labeled streptavidin; not shown: Fc part and His label of the bought reagent
T1 sequence (P20138 18-259): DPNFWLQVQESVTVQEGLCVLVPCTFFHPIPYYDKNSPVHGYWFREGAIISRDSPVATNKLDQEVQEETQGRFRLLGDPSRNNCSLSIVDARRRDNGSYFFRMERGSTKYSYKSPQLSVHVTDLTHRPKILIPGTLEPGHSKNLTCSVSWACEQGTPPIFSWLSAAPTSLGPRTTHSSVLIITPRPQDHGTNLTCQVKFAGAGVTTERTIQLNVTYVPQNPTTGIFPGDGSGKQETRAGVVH
Put plainly: flow cytometry; CD33-Fc staining of transduced T cells, APC labeled streptavidin secondary. (In flow cytometry, cells or beads pass a laser one at a time.)

The target in test [4] is T2, PE labeled BCMA Fc reagent (AcroBio) (UniProt Q02223 1-54, PE label).
T2 construct: not shown: Fc part of the bought reagent
T2 sequence (looked up): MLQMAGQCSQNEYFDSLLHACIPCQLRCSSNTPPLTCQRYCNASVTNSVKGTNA
As to the kind of experiment: flow cytometry; PE labeled BCMA Fc staining of transduced T cells. From the text: T cells were interrogated for cell surface CAR expression using flow cytometry. T cells were stained using a PE labeled BCMA Fc reagent (AcroBio). […] IL2 secretion of scFv-TCR was greater than anti-BCMA CAR in coculture with medium and low BCMA expressing cell lines (FIG. 21C). […] For Live-cell imaging by IncuCyte was used to analyze tumor cell growth of HT1080.BCMA stably transduced with red reporter. The HT1080.BCMA cells grew in the presence of UTD T cells and MAGEA4 TCR-T cells.

Sequence of human CD33 on tumor cells (A549.CD33; A549 electroporated with CD33 mRNA; HL-60, Kasumi1, OCI-AML3) (P20138 18-364): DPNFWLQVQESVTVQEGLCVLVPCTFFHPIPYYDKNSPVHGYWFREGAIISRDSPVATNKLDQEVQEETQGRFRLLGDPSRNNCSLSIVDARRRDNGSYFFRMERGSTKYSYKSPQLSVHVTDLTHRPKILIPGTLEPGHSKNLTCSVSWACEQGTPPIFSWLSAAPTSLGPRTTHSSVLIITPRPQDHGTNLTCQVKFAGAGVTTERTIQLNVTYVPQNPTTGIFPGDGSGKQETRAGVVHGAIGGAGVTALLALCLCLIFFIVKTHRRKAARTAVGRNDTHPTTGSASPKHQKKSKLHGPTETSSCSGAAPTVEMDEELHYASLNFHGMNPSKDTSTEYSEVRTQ

B1: VHH-TCR with a VHH added to the TRA separated by a mu linker (LEKT)+G4S; TRB-P2A-CD33.VHH-mLNK.1xG4S-TRA (SEQ ID NO: 94) (TCR)
TCR beta: DSGVTQTPKHLITATGQRVTLRCSPRSGDLSVYWYQQSLDQGLQFLIQYYNGEERAKGNILERFSAQQFPDLHSELNLSSLELGDSALYFCASSGGDGDEQFFGPGTRLTVLEDLKNVFPPEVAVFEPSKAEIAHTQKATLVCLATGFYPDHVELSWWVNGKEVHSGVSTDPQPLKEQPALNDSRYCLSSRLRVSATFWQNPRNHFRCQVQFYGLSENDEWTQDRAKPVTQIVSAEAWGRADCGITSASYHQGVLSATILYEILLGKATLYAVLVSALVLMAMVKRKDSRG
TCR alpha: EVQLVESGGGEVQPGGSLRLSCAASRSSGIDVMGWYRQAPGKERELVAEISGVGDTNYAASLADRFTVSRDNAKNTVYLQMSSLRAEDTAVYYCNAHSFLDLVGAWGQGTLVTVKPLEKTGGGGSAQKITQTQPGMFVQEKEAVTLDCTYDTSDPSYGLFWYKQPSSGEMIFLIYQGSYDQQNATEGRYSLNFQKARKSANLVISASQLGDSAMYFCAMSGGYTGGFKTIFGAGTRLFVKANIQNPDPAVYQLRDSKSSDKSVCLFTDFDSQTNVSQSKDSDVYITDKTVLDMRSMDFKSNSAVAWSNKSDFACANAFNNSIIPEDTFFPSSDVPCDVKLVEKSFETDTNLNFQNLLVIVLRILLLKVAGFNLLMTLRLWSS
Regarding B1, the interferon gamma production was over 2 fold in test [1] and about 3 fold in test [2].

B2: VHH-TCR with a VHH added to the TRA separated by a 2xG4S; TRB-P2A-CD33.VHH-2xG4S-TRA (SEQ ID NO: 96) (TCR)
TCR beta: B1 TCR beta
TCR alpha: EVQLVESGGGEVQPGGSLRLSCAASRSSGIDVMGWYRQAPGKERELVAEISGVGDTNYAASLADRFTVSRDNAKNTVYLQMSSLRAEDTAVYYCNAHSFLDLVGAWGQGTLVTVKPGGGGSGGGGSAQKITQTQPGMFVQEKEAVTLDCTYDTSDPSYGLFWYKQPSSGEMIFLIYQGSYDQQNATEGRYSLNFQKARKSANLVISASQLGDSAMYFCAMSGGYTGGFKTIFGAGTRLFVKANIQNPDPAVYQLRDSKSSDKSVCLFTDFDSQTNVSQSKDSDVYITDKTVLDMRSMDFKSNSAVAWSNKSDFACANAFNNSIIPEDTFFPSSDVPCDVKLVEKSFETDTNLNFQNLLVIVLRILLLKVAGFNLLMTLRLWSS
notes: also called VHH-TCR with 2G4S; VHH-TCR with two G4Ss
B2: the binding result in test [3] is given as “binds”.

B3: engineered dual-targeting TCR (VHH-TCR): MAGEA4-reactive, HLA-A2-restricted TCR embedded with a VHH targeting human CD33; TRB-P2A-CD33.VHH-mLNK-TRA (SEQ ID NO: … (TCR)
TCR beta: B1 TCR beta
TCR alpha: EVQLVESGGGEVQPGGSLRLSCAASRSSGIDVMGWYRQAPGKERELVAEISGVGDTNYAASLADRFTVSRDNAKNTVYLQMSSLRAEDTAVYYCNAHSFLDLVGAWGQGTLVTVKPLEKTAQKITQTQPGMFVQEKEAVTLDCTYDTSDPSYGLFWYKQPSSGEMIFLIYQGSYDQQNATEGRYSLNFQKARKSANLVISASQLGDSAMYFCAMSGGYTGGFKTIFGAGTRLFVKANIQNPDPAVYQLRDSKSSDKSVCLFTDFDSQTNVSQSKDSDVYITDKTVLDMRSMDFKSNSAVAWSNKSDFACANAFNNSIIPEDTFFPSSDVPCDVKLVEKSFETDTNLNFQNLLVIVLRILLLKVAGFNLLMTLRLWSS
Turning to B3, in test [2], the interferon gamma production is about 3 fold.

B4: MAGEA4-reactive, HLA-A2-restricted TCR embedded with tandem VHHs targeting human CD33 and CLL1; TRB-P2A-CLL1-CD33.VHH-mLNK.1xG4S-TRA (SEQ ID NO: 97) (TCR)
TCR beta: B1 TCR beta
TCR alpha: EVQLVESGGGEVQPGGSLRLSCAASGFLFSIYDMNWYRQAPGKEREWVAGITNNGYSTAYAESVKGRFTISRDNAKNTIYLQMSSLRAEDTAVYYCHADLTKAYDVEYAWGQGTLVTVKPGGGGSGGGGSEVQLVESGGGEVQPGGSLRLSCAASRSSGIDVMGWYRQAPGKERELVAEISGVGDTNYAASLADRFTVSRDNAKNTVYLQMSSLRAEDTAVYYCNAHSFLDLVGAWGQGTLVTVKPLEKTGGGGSAQKITQTQPGMFVQEKEAVTLDCTYDTSDPSYGLFWYKQPSSGEMIFLIYQGSYDQQNATEGRYSLNFQKARKSANLVISASQLGDSAMYFCAMSGGYTGGFKTIFGAGTRLFVKANIQNPDPAVYQLRDSKSSDKSVCLFTDFDSQTNVSQSKDSDVYITDKTVLDMRSMDFKSNSAVAWSNKSDFACANAFNNSIIPEDTFFPSSDVPCDVKLVEKSFETDTNLNFQNLLVIVLRILLLKVAGFNLLMTLRLWSS
notes: also called CD33-CLL1-TCR; CD33-CLL1 TCR
For the molecule B4, the binding result in test [3] was “binds”.

B5: MAGEA4-reactive, HLA-A2-restricted TCR embedded with an scFv targeting human BCMA and a 2xG4S linker between the scFv and Va; TRB-P2A-BCMA.scFv-2xG4S-TRA (SEQ … (TCR)
TCR beta: B1 TCR beta
TCR alpha: DIVLTQSPPSLAMSLGKRATISCRASESVTILGSHLIHWYQQKPGQPPTLLIQLASNVQTGVPARFSGSGSRTDFTLTIDPVEEDDVAVYYCLQSRTIPRTFGGGTKLEIKGSTSGSGKPGSGEGSTKGQIQLVQSGPELKKPGETVKISCKASGYTFTDYSINWVKRAPGKGLKWMGWINTETREPAYAYDFRGRFAFSLETSASTAYLQINNLKYEDTATYFCALDYSYAMDYWGQGTSVTVSSGGGGSGGGGSAQKITQTQPGMFVQEKEAVTLDCTYDTSDPSYGLFWYKQPSSGEMIFLIYQGSYDQQNATEGRYSLNFQKARKSANLVISASQLGDSAMYFCAMSGGYTGGFKTIFGAGTRLFVKANIQNPDPAVYQLRDSKSSDKSVCLFTDFDSQTNVSQSKDSDVYITDKTVLDMRSMDFKSNSAVAWSNKSDFACANAFNNSIIPEDTFFPSSDVPCDVKLVEKSFETDTNLNFQNLLVIVLRILLLKVAGFNLLMTLRLWSS
notes: also called scFv-TCR; BCMA ScFv TCR
As for B5, the binding result in test [4] is recorded as “binds”.

B6: VHH-TCR with a VHH added to the TRA separated by a 1xG4S; TRB-P2A-CD33.VHH-1xG4S-TRA (SEQ ID NO: 95) (TCR)
TCR beta: B1 TCR beta
TCR alpha: EVQLVESGGGEVQPGGSLRLSCAASRSSGIDVMGWYRQAPGKERELVAEISGVGDTNYAASLADRFTVSRDNAKNTVYLQMSSLRAEDTAVYYCNAHSFLDLVGAWGQGTLVTVKPGGGGSAQKITQTQPGMFVQEKEAVTLDCTYDTSDPSYGLFWYKQPSSGEMIFLIYQGSYDQQNATEGRYSLNFQKARKSANLVISASQLGDSAMYFCAMSGGYTGGFKTIFGAGTRLFVKANIQNPDPAVYQLRDSKSSDKSVCLFTDFDSQTNVSQSKDSDVYITDKTVLDMRSMDFKSNSAVAWSNKSDFACANAFNNSIIPEDTFFPSSDVPCDVKLVEKSFETDTNLNFQNLLVIVLRILLLKVAGFNLLMTLRLWSS
notes: also called VHH-TCR with 1G4S; VHH-TCR with one G4S
With B6, the binding result in test [3] is recorded as “binds”.

B7: scFv-based CAR targeting human BCMA (SEQ ID NO: 101) (other)
chain: DIVLTQSPPSLAMSLGKRATISCRASESVTILGSHLIHWYQQKPGQPPTLLIQLASNVQTGVPARFSGSGSRTDFTLTIDPVEEDDVAVYYCLQSRTIPRTFGGGTKLEIKGSTSGSGKPGSGEGSTKGQIQLVQSGPELKKPGETVKISCKASGYTFTDYSINWVKRAPGKGLKWMGWINTETREPAYAYDFRGRFAFSLETSASTAYLQINNLKYEDTATYFCALDYSYAMDYWGQGTSVTVSSAAATTTPAPRPPTPAPTIASQPLSLRPEACRPAAGGAVHTRGLDFACDIYIWAPLAGTCGVLLLSLVITLYCKRGRKKLLYIFKQPFMRPVQTTQEEDGCSCRFPEEEEGGCELRVKFSRSADAPAYQQGQNQLYNELNLGRREEYDVLDKRRGRDPEMGGKPRRKNPQEGLYNELQKDKMAEAYSEIGMKGERRRGKGHDGLYQGLSTATKDTYDALHMQALPPR
notes: Chimeric antigen receptor on transduced T cells; also called anti-BCMA CAR; BCMA scFv CAR
In the case of B7, the binding result in test [4] was “binds”.

B8: VHH-TCR with a VHH added to the TRB separated by a marsupial mu linker (LEKT); CD33.VHH-mLNK-TRB-P2A-TRA (SEQ ID NO: 91) (TCR)
TCR beta: EVQLVESGGGEVQPGGSLRLSCAASRSSGIDVMGWYRQAPGKERELVAEISGVGDTNYAASLADRFTVSRDNAKNTVYLQMSSLRAEDTAVYYCNAHSFLDLVGAWGQGTLVTVKPLEKTDSGVTQTPKHLITATGQRVTLRCSPRSGDLSVYWYQQSLDQGLQFLIQYYNGEERAKGNILERFSAQQFPDLHSELNLSSLELGDSALYFCASSGGDGDEQFFGPGTRLTVLEDLKNVFPPEVAVFEPSKAEIAHTQKATLVCLATGFYPDHVELSWWVNGKEVHSGVSTDPQPLKEQPALNDSRYCLSSRLRVSATFWQNPRNHFRCQVQFYGLSENDEWTQDRAKPVTQIVSAEAWGRADCGITSASYHQGVLSATILYEILLGKATLYAVLVSALVLMAMVKRKDSRG
TCR alpha: AQKITQTQPGMFVQEKEAVTLDCTYDTSDPSYGLFWYKQPSSGEMIFLIYQGSYDQQNATEGRYSLNFQKARKSANLVISASQLGDSAMYFCAMSGGYTGGFKTIFGAGTRLFVKANIQNPDPAVYQLRDSKSSDKSVCLFTDFDSQTNVSQSKDSDVYITDKTVLDMRSMDFKSNSAVAWSNKSDFACANAFNNSIIPEDTFFPSSDVPCDVKLVEKSFETDTNLNFQNLLVIVLRILLLKVAGFNLLMTLRLWSS
For the molecule B8, the interferon gamma production in test [1] is over 2 fold.

B9: VHH-TCR with a VHH added to the TRB separated by a mu linker+G4S; CD33.VHH-mLNK.1xG4S-TRB-P2A-TRA (SEQ ID NO: 92) (TCR)
TCR beta: EVQLVESGGGEVQPGGSLRLSCAASRSSGIDVMGWYRQAPGKERELVAEISGVGDTNYAASLADRFTVSRDNAKNTVYLQMSSLRAEDTAVYYCNAHSFLDLVGAWGQGTLVTVKPLEKTGGGGSDSGVTQTPKHLITATGQRVTLRCSPRSGDLSVYWYQQSLDQGLQFLIQYYNGEERAKGNILERFSAQQFPDLHSELNLSSLELGDSALYFCASSGGDGDEQFFGPGTRLTVLEDLKNVFPPEVAVFEPSKAEIAHTQKATLVCLATGFYPDHVELSWWVNGKEVHSGVSTDPQPLKEQPALNDSRYCLSSRLRVSATFWQNPRNHFRCQVQFYGLSENDEWTQDRAKPVTQIVSAEAWGRADCGITSASYHQGVLSATILYEILLGKATLYAVLVSALVLMAMVKRKDSRG
TCR alpha: B8 TCR alpha
B9: the interferon gamma production in test [1] is over 2 fold.
